Measurements reported in US20250236657A1 (TOSOH, published 2025).

What was measured:
[1] = target: AAV2 R471A (adeno-associated virus serotype 2 (AAV2)) (UniProt P03135); assay: affinity HPLC, POROS AAVX resin, linear pH gradient 4.5 to 2.2, AAV2 peak top
[2] = target: AAV2 G383A (adeno-associated virus serotype 2 (AAV2)) (UniProt P03135); assay: as above
[3] = target: AAV2 D529A (adeno-associated virus serotype 2 (AAV2)) (UniProt P03135); assay: as above
[4] = target: AAV2 S384A (adeno-associated virus serotype 2 (AAV2)) (UniProt P03135); assay: as above
[5] = target: AAV2 H271T (adeno-associated virus serotype 2 (AAV2)) (UniProt P03135); assay: as above
[6] = target: AAV2 (wild type), serotype 2 AAV with capsid region VP1 of SEQ ID NO: 99 (adeno-associated virus serotype 2 (AAV2)) (UniProt P03135); assay: as above
[7] = target: AAV2 D529E (adeno-associated virus serotype 2 (AAV2)) (UniProt P03135); assay: as above
[8] = target: AAV2 S267T (adeno-associated virus serotype 2 (AAV2)) (UniProt P03135); assay: as above
[9] = target: AAV2 H271F (adeno-associated virus serotype 2 (AAV2)) (UniProt P03135); assay: as above
[10] = target: AAV2 H271A (adeno-associated virus serotype 2 (AAV2)) (UniProt P03135); assay: affinity HPLC, POROS AAVX resin, linear pH gradient 6.0 to 2.0, AAV2 peak top
[11] = target: AAV2 R471A (adeno-associated virus serotype 2 (AAV2)) (UniProt P03135); assay: as above
[12] = target: AAV2 D528A (adeno-associated virus serotype 2 (AAV2)) (UniProt P03135); assay: as above
[13] = target: AAV2 N382A (adeno-associated virus serotype 2 (AAV2)) (UniProt P03135); assay: as above
[14] = target: AAV2 S267A (adeno-associated virus serotype 2 (AAV2)) (UniProt P03135); assay: as above
[15] = target: AAV2 G383A (adeno-associated virus serotype 2 (AAV2)) (UniProt P03135); assay: as above
[16] = target: AAV2 Q385A (adeno-associated virus serotype 2 (AAV2)) (UniProt P03135); assay: as above
[17] = target: AAV2 D529A (adeno-associated virus serotype 2 (AAV2)) (UniProt P03135); assay: as above
[18] = target: AAV2 S264A (adeno-associated virus serotype 2 (AAV2)) (UniProt P03135); assay: as above
[19] = target: AAV2 S384A (adeno-associated virus serotype 2 (AAV2)) (UniProt P03135); assay: as above
[20] = target: AAV2 Q263A (adeno-associated virus serotype 2 (AAV2)) (UniProt P03135); assay: as above
[21] = target: AAV2 H271T (adeno-associated virus serotype 2 (AAV2)) (UniProt P03135); assay: as above
[22] = target: AAV2 H271Q (adeno-associated virus serotype 2 (AAV2)) (UniProt P03135); assay: as above
[23] = target: AAV2 E499A (adeno-associated virus serotype 2 (AAV2)) (UniProt P03135); assay: as above
[24] = target: AAV2 (wild type), serotype 2 AAV with capsid region VP1 of SEQ ID NO: 99 (adeno-associated virus serotype 2 (AAV2)) (UniProt P03135); assay: as above
[25] = target: AAV2 D529E (adeno-associated virus serotype 2 (AAV2)) (UniProt P03135); assay: as above
[26] = target: AAV2 S267T (adeno-associated virus serotype 2 (AAV2)) (UniProt P03135); assay: as above
[27] = target: AAV2 H271F (adeno-associated virus serotype 2 (AAV2)) (UniProt P03135); assay: as above
[28] = target: AAV2 T503S (adeno-associated virus serotype 2 (AAV2)) (UniProt P03135); assay: as above

## POROS Capture Select AAVX Affinity Resin (manufactured by Thermo Fisher Scientific)
[1]
  AAVX column elution time: 48.1 min
[2]
  AAVX column elution time: 48.1 min
[3]
  AAVX column elution time: 47.8 min
[4]
  AAVX column elution time: 48 min
[5]
  AAVX column elution time: 47.9 min
[6]
  AAVX column elution time: 48.2 min
[7]
  AAVX column elution time: 48 min
[8]
  AAVX column elution time: 48 min
[9]
  AAVX column elution time: 48.1 min
[10]
  AAVX column elution time: 59.4 min
[11]
  AAVX column elution time: 59.4 min
[12]
  AAVX column elution time: 59.1 min
[13]
  AAVX column elution time: 59.2 min
[14]
  AAVX column elution time: 59.3 min
[15]
  AAVX column elution time: 59.3 min
[16]
  AAVX column elution time: 59.3 min
[17]
  AAVX column elution time: 59.3 min
[18]
  AAVX column elution time: 59.2 min
[19]
  AAVX column elution time: 59.3 min
[20]
  AAVX column elution time: 59.3 min
[21]
  AAVX column elution time: 59.3 min
[22]
  AAVX column elution time: 59.3 min
[23]
  AAVX column elution time: 59.3 min
[24]
  AAVX column elution time: 59.3 min
[25]
  AAVX column elution time: 59.3 min
[26]
  AAVX column elution time: 59.2 min
[27]
  AAVX column elution time: 59.3 min
[28]
  AAVX column elution time: 59.4 min
